{"source": "the nanobody polyreactivity screen of Harvey et al. (2022)"}
{"assay": "yeast display, Sf9 membrane polyspecificity reagent, FACS + sequencing; frameworks hold sequencing errors", "how_it_was_run": "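Nanobodies came from a synthetic yeast display library in Saccharomyces cerevisiae BJ5465, induced with galactose for 36–48 hours and stained for 1 hour at 4 °C with 10% biotinylated, detergent-solubilized Sf9 membrane reagent. Cells were enriched on streptavidin microbeads and then FACS-sorted, with low and high (top ~1%) gates set on anti-HA fluorescence for expression and streptavidin fluorescence for reagent binding. Each polyreactivity label reflects the gate a clone came from. Genes were amplified by colony PCR, sequenced by MiSeq 2 × 250 and filtered by CDR length.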"}
{"sequence": "QVQLVESAGGLVQAGGSLRLSCAASGLTFPPNAMGWYRHAPGKERELVADSGGSTNYADSVKGRFTISRDNAKNTVYLQMNSLKPEDTAVYYCAAPPYSDGQWDDYWGQGSQVTVSS", "polyreactivity (PSR sort gate)": "low polyreactivity"}
{"sequence": "QVQLVESGGGLVQAGGSLRLSCAASGRTFGHYAMGLYRQAPGKERELVADITRRGGSTSYADSVKGRFTISRDNAKNTVYLQMNSLKPEDTAVYYCNKAADGSSHYDYWGQGTQVTVSS", "polyreactivity (PSR sort gate)": "low polyreactivity"}
{"sequence": "QVQLVESGGGLVQAGGSLRLSCAASGSIFAFYAKGWYRQAPGKERELVAYITSGGSTYYADSVKGRFTISRDNAKNNVYLQMNSLKPEDTAVYYFNSVYYSALVSGGETTIKRRYYWGQGTQVTVSS", "polyreactivity (PSR sort gate)": "high polyreactivity"}
{"sequence": "QVQHVASGGGIDQAGGSLRLSCAASGFIFSWYALGWYRQAPGKERELVAGISIRGGRTYADSVKGRFTISRDNAKNTVYLQMNSLTPEDTAVYSCATRSYRPYHSLYDYWGQGTQVTVSS", "polyreactivity (PSR sort gate)": "high polyreactivity"}
{"sequence": "QVQLVESGGGLFQAGGSLRLICAASGSTFLNNAMGWYRQAPGKERELVAAISYRGGSTYYADSVKGRFTISRDNAKNTVYLQMNSLKPEDTAVYYCAAEVTRFWWRSPYDYNYWGQGTQVTVSS", "polyreactivity (PSR sort gate)": "high polyreactivity"}
{"sequence": "QVQLVESGGGLVKAGGSLRLSCAPSGSSFYYAMGWYRQAPGKERELVAAINSGGSTNYADSVKGRFTISRDNAKNTVYLQMNSLKPEDTAVYYCAADLYGYWWSFDYDYWGQGTQVTVSS", "polyreactivity (PSR sort gate)": "low polyreactivity"}
{"sequence": "QVQLVESGGGLVQAGGSLRLSCAASGFTFWRYAKGWYRHAPGKERELVAAISSGGSTNYADSVKGRFTISRDNAKNTVYIQMNSLKPEDTAVYYCNARYYHKRSTRVIFPYDYWGQGTQVTVSS", "polyreactivity (PSR sort gate)": "high polyreactivity"}
{"sequence": "QVQLVESGGGLVQAGGSLRLSCAASGSTFWSYAMGWYRQAPGKERELVAVITWSGGSTNYADSVKGRFTISRDNAKNTVYLQMNSLKPEDTAVYYCNAPYYFWSYIYDYLGQGTQVTVSS", "polyreactivity (PSR sort gate)": "low polyreactivity"}
{"sequence": "QVQLVESGGGLVQAGGSLRLSCAASGRIFTKYAMGWYRQAPGKERELVAAISQIGGSTYYADSVKGRFTISRDKAKNTVYLQMNSLKPEDTAVYYCAARWREASYRYENWGQGTQVTVSS", "polyreactivity (PSR sort gate)": "high polyreactivity"}
{"sequence": "QVQLVESGGGLVQAGGSLSLSCAASGFTFAKYAMGWYRQAPGKERELVATISWSGGTTSYADSVKGRFTISRDNAKNTVYLQMNSLKPEDTAVYYCAALRYADYDYWGQGTQVTVSS", "polyreactivity (PSR sort gate)": "high polyreactivity"}
{"sequence": "QVQLVESGGGLVQAGGSLRLSCAASGFIYHGYTMGWYSQAPGKERDLVAAITTSGTSTYYADSVKGRFTISRDNAKNTVYLQMNSLKPEDTAVYYCYDYVPGGYSRPYYYRFDHWGQGTQVTVSS", "polyreactivity (PSR sort gate)": "high polyreactivity"}
{"sequence": "QVQLVESGGGLVQAGGSLRLSCAGSGRIFARNVMGWYGQAPGKVRELVAAISRSGGSTYYADSVKGRFTISRDNAKNTVYLQMNSLKPEDTAFYYCNAYYPIRSSPYGYYYWGQGTQVTVSS", "polyreactivity (PSR sort gate)": "high polyreactivity"}
{"sequence": "QVQLVESGGGLVQAGGSLRLSCAASGSIFPDNTMGWYRQSPGKDRELVGAIDGRGGTTYYADSVKGSFTISRDNAKNTVYLQMNSLKPEDTAVYYCARDIGHSASYDYWGQGTQVTVSS", "polyreactivity (PSR sort gate)": "low polyreactivity"}
{"sequence": "QVQLVESGGGLVQAGGSLRLSCAASGSIFRSNAMGWYRQAPGKERELVAAITQSGDTTNYADSVKGRFTISRDNAKNTVYLQMNSLKPEDTAVYYCNADTDRYWPYEYDYWGQGTQVTVSS", "polyreactivity (PSR sort gate)": "low polyreactivity"}
{"sequence": "QVQLVESGGGLVQAGGSLRLSCAASGSTFTYYAMGWYRQPPGKERELVAAIDTSGTSTYYADSVKGRFTISRDNAKNTVYLQINSLKPEDTAVYYCNAYPTTYYQQYDYWGQGTQVTVSS", "polyreactivity (PSR sort gate)": "low polyreactivity"}
{"sequence": "QVQLVESGGGLVQAGGSLRLSCAASGSTFDGNAMGWYRQAPGTERELVATINSDDSKNYADSVKGRFTISRDNAKNTVYLQMNSLKPEDTAVYYCAARLYVTPILSYVERYTNDYWGQGTQVTVSS", "polyreactivity (PSR sort gate)": "low polyreactivity"}
{"sequence": "QVQLVESGGGLVQAGGSLRLSCAASGFIFYSNAMGWYIQAPGKEREVVAAISWDAGSTYYADSVKGRFTISRDNAKNTVYLQMISLKPEDSAVYYCATDRIVGRYIYNYWGQGTQVTVSS", "polyreactivity (PSR sort gate)": "high polyreactivity"}
{"sequence": "QVQLVESAGGLVQAGGSLRLSCAASGSNFAIYDMGWYRQAPGKEREFVADISIVGRKKYADSVKGRFTISRDNAKNTVYLQMNSLKPEDTAVYYCTDQDSRDRKFYWGYTRGHWGQGTQVTVSS", "polyreactivity (PSR sort gate)": "low polyreactivity"}
{"sequence": "QVQLVESGGGLVQAGGSLRLSCAASGSTFMDYAMGWYRQAPGKERELVAAISSGGSTNYADSVKGRFTISRDNAKNTVYLQMNSLKPEDTAVYYCNADYYWSRTQEFDYWGQGTQVTVSS", "polyreactivity (PSR sort gate)": "high polyreactivity"}
{"sequence": "QVQLVESGGGLVQAGGSLRLSCAASGLIFVYNSMGWYRQAPGKERELVAGITSGGSTNYADSVKGRFTISRDNAKNTVYLQMNSLKPEDTAVYYCAAGYYDLYLWWGYDYWGQGTQVTVSS", "polyreactivity (PSR sort gate)": "high polyreactivity"}
{"sequence": "QVQLVESGGGLVQAGGSLRLSCAASGIIFWRYAMGWYRQAPGKERELVATITSGGSTDYADSVKGRFTISRDNAKNTVYLQMNSLKPEDTEVYYCAALGYATGYWRYYYWGQGTQVTVSS", "polyreactivity (PSR sort gate)": "low polyreactivity"}
{"sequence": "QVQLVESGGGLVQSGGSLRLSCAASGITLRRNAMVWYRQAPGKERELVASISSRGGTTYYADSVKGRFTISRDNAKNTDYLQMISQKPEDTAVYYCAAYRVQRLANTGYDYWGQGTQVTVSS", "polyreactivity (PSR sort gate)": "high polyreactivity"}
{"sequence": "QVQLVESGGGLVQAGGSLRLICAASGSTFGDYDMGWYRQAPGKETELVAAISNGGSTYYADSVKGRFTISRDYAKNTVYLQMNSLKREETAVYYCNADNVEIRSTYEYGRYLYGYWGQGTQVTVSS", "polyreactivity (PSR sort gate)": "low polyreactivity"}
{"sequence": "QVQLVESGGGLVQAGGSLRLSCAASGFTFPHYMGWYRQAPGKERELVAAINVSGGSTSYADSVKGRFTISRDNAKNTVYLQMNSLKPEDTAVYYCAKDLRFRLFSYPSDYWGQATQVTVSS", "polyreactivity (PSR sort gate)": "low polyreactivity"}
{"sequence": "QVHLVDSGGGLVQEGGSLRLSCGASGSTFQSYAMGWYRQSPGKERELVAVIDSGGRTYYADSVKGRFTISRDNAKNTVYLQINSLKPEDTAVYYCAARGPVGNGWRYRPWHDYWGQGTQVTVSS", "polyreactivity (PSR sort gate)": "high polyreactivity"}
{"sequence": "QVQHVESGGGLVQAGGSLRLSCAASGSTIYWYAMGWYRQAPGKERELVAAISLSGGSTYYADSVKGRFTISRDNAKNTVYLQMNSLKPEDTAVYYCAARTSYYVYRHPSGRYDYWGQGTQVSVSS", "polyreactivity (PSR sort gate)": "low polyreactivity"}
{"sequence": "QVQLVESGGGLVQAGCSLRLSCAASGGTFYANAKGRYRQAPGIVRELVAAITSGGSTNYADSVKGRFTISRDNAKNTVYLEINSLKPEDTAVYYCNASAQRRYWHSYFRRYDYWGQGTQVTVSS", "polyreactivity (PSR sort gate)": "low polyreactivity"}
{"sequence": "QDQLVESGGGLVQAGGSLRLICAASGSNLNNYAMGWSRQAPGKERELVAAISSSGGTNYADSVKGRFTISRDNAKNTVYLQMNSLKPEDTAVYYCNADVLEGGYDYWGQGPQVTVSS", "polyreactivity (PSR sort gate)": "low polyreactivity"}
{"sequence": "QVQLVESGGGLVQAGGSLRLSCAASGFIFSRYAMGWYRQAPGKERELVAAISSGGRTNYADSVKGRFTISRDNAKNTVYLQMNSLKPEDTAVYFCAALLRGRSGQFEYDYWGQGTQVTVSS", "polyreactivity (PSR sort gate)": "low polyreactivity"}
{"sequence": "QLQLVESGGGLVQAGGSLRLSCAASGSTFSYNAMGWYRQAPWKERELVAAISGSGGTTYYADSVKVRVTISRDNAKNTVYLQMNSLKPEDTAVYYCAARPFRSWRYDYWGQGSQVTVSS", "polyreactivity (PSR sort gate)": "low polyreactivity"}
{"sequence": "QVQLVESGGGLVQAGGSLRLSCAASGRIFLRYTMGWYRQAPGKERELVAAISARTTGTYYADSVKGRFTISRDNAKNTVYLQMNSLKPEDTAVYYCAAKSKLSRDLFSWGQGTQVTVSS", "polyreactivity (PSR sort gate)": "low polyreactivity"}
{"sequence": "QVQLVESGAGLVQAGGRIRLTCAASRSILRGYAMGWYRQAPGKERELVAAITWNGGSTYYADSVKGRFTISRDNANNTVYLHMISLKPEDTAVYYFNRAIGPYSYPDNYWGQGTQVTVSS", "polyreactivity (PSR sort gate)": "high polyreactivity"}
{"sequence": "QVQLVESGGGLVQAGGSLSLSCAATGSTFSLYAMGWYIQAPGKERELVAAISSSGGSTYYADSVKGRFTISRDNAKNTVYLQMNSLKPEDTAVYYCAAYRVGSYDYWGQGTQVTVSS", "polyreactivity (PSR sort gate)": "high polyreactivity"}
{"sequence": "QVQLVESGGGLVQAGGSLRLSCAASGSTFVSYAMGWYRQAPGKERELVAGISWSGTRTYYADSVKGRFTISRDNAKNTVYLQMNSLKPEDTAVYYFNAVYKYNYRTLDYWGQGTQVTVSS", "polyreactivity (PSR sort gate)": "high polyreactivity"}
{"sequence": "QVQLVESGGGLVQAGGSLRLSCAASGRTFYQNAMGWYRQAPGKERELVAAISYRGASTYYADSVKGRFTISRDNAKNTVYLQMHSLKPEDTAVYYCAVAARTRARVLYGYDYWGQGTQVTVSS", "polyreactivity (PSR sort gate)": "low polyreactivity"}
{"sequence": "QVQLVESGGGLVQAGGSHRLSCAASGFTFGYYVMGWYRQAPGKERELVAAISKRGSSTYYADCVKGRFTISRDNANTTVYLQMNSLKPVDTAVYYCAADGVYSHKDGHWGQGTQVTVSS", "polyreactivity (PSR sort gate)": "high polyreactivity"}
{"sequence": "QVQLVESGGGLVQAGGSLRLSCAASGRIIYAYAMGWYRQTPGKERELVAAISTRGGTTYYADSVKGRFTISRDNAKNTVYLQMNSLKPEDTAVYYCNALRVSRRVGYDSWGKGTQVTVSS", "polyreactivity (PSR sort gate)": "high polyreactivity"}
{"sequence": "QVQLVESGGGLVQAGGSLRLSCAASGSIFGYYAMGCYRQAPGKERELVAAITNGGSTSYADSVKGRFTISRDNAKNTVDLQMNSLKPEETSVYYCNARFKRLFGRADDYWGQGTQVTVSS", "polyreactivity (PSR sort gate)": "low polyreactivity"}
{"sequence": "QVQLVESGGGLVQAGGSLRLSCAASGFIFAKYAMGWYRQAPGKERALGAAITSGGSTNYADSVKGRFTISRDNAKNTLYLQMNSLNPEDTAVYSCNRGFDWCYRYRHYDYWGQGTQVTVSS", "polyreactivity (PSR sort gate)": "low polyreactivity"}
{"sequence": "QVQLVESGGGLVQAGGSLRLSCAASGRTFTIYAMGWYRQAPGKERELVAGITSAGRTYYADSVKGRFTISRDNAKNTVYSQMNSLNPEDTAVDYCAASGSYAIVWGDQYYGYYYWGQGTQVTVSS", "polyreactivity (PSR sort gate)": "high polyreactivity"}
{"sequence": "QVQLVESGGGLVQEGGSLRLSCAASGSIFSTYVMGWYRQAPGKERELVAAISRRGGSTYYADSVKGRFTISRDNAKNTVYLQMNSLKPEDTAVYYCAADGTVGRRDYWGQGTQVTVSS", "polyreactivity (PSR sort gate)": "high polyreactivity"}
{"sequence": "QVQLVESGGGLVQAGGSLRLSCAASGFIFSRYGMGWYRQAPGKERELVAAISRTGGSTYYADSVKGRFTISRDNAKNTVYFQMNSLKPEDTAVYYCATAYSWRNADWFAYSYDYWGQGTQVTVSS", "polyreactivity (PSR sort gate)": "low polyreactivity"}
{"sequence": "QVQIVESGGGLVQAGGSLRLSCAASGSIFTYNAMGWYRQAPGKERELVAAISYSGVRTYYADSVKGRFTISRDNAKNTVYLQMNRLKPVDTAVYYCNTRYPYSVLKYGYWGQGTQVTVSS", "polyreactivity (PSR sort gate)": "high polyreactivity"}
